Here are results for 3 molecules from patent US20190225669A1 (ACCELERON PHARMA, published 2019).

Where two headings read alike, the source gives them in different places.

Experiment [1] has as its target T1, activin A (UniProt P08476 311-426).
T1 sequence (looked up): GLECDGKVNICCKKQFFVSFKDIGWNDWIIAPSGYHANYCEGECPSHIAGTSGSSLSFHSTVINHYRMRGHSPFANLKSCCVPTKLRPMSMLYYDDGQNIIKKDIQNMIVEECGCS
In words: Biacore SPR. The procedure:
(§1) Ligands were injected and allowed to flow over the captured receptor protein.
On the technique in general: In SPR one partner is held on a chip, and binding of the other changes the refractive index at the surface.

Experiment [2] addresses T2, GDF8 (UniProt O14793 267-375).
T2 construct: also called myostatin
T2 sequence (looked up): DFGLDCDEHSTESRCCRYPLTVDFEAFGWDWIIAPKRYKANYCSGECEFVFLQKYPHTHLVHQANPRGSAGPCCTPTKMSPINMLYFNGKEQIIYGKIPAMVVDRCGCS
In words: Biacore SPR. The procedure:
as §1

Experiment [3] addresses T3, GDF3 (UniProt Q9NR23 251-364).
T3 sequence (looked up): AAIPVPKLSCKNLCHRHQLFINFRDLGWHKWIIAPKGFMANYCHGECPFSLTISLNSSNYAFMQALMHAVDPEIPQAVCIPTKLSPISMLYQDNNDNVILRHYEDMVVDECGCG
Briefly: Biacore SPR. The procedure: as §1

Experiment [4] has as its target T4, BMP10 (UniProt O95393 317-424).
T4 sequence (looked up): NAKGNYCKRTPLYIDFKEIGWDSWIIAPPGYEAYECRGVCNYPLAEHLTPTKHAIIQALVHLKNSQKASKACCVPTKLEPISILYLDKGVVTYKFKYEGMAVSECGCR
In words: Biacore SPR. As for the experimental part: as §1

Experiment [5] addresses T5, GDF11 (UniProt O95390 299-407).
T5 construct: also called BMP11
T5 sequence (looked up): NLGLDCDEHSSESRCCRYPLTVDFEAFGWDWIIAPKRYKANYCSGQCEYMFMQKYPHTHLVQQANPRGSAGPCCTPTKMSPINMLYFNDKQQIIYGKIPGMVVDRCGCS
In words: Biacore SPR. As for the experimental part:
as §1

The target in experiment [6] is T6, BMP6 (UniProt P22004 382-513, limits assumed).
T6 sequence (looked up): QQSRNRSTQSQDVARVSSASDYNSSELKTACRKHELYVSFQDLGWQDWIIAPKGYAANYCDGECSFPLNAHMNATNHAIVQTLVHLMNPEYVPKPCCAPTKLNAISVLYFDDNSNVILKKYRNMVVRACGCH
Briefly: Biacore SPR. The procedure: as §1

Experiment [7] addresses T7, activin B (UniProt P09529 293-407).
T7 sequence (looked up): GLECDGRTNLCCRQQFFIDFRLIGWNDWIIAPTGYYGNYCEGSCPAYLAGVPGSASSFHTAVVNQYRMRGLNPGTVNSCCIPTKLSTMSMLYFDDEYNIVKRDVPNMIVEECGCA
In words: Biacore SPR. The procedure:
as §1

Experiment [8] concerns the target T8, BMP9 (UniProt Q9UK05 320-429).
T8 construct: also called GDF2
T8 sequence (looked up): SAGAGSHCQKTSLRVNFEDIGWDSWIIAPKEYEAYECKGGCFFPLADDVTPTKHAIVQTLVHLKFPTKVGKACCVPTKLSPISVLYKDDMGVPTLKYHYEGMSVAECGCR
In words: Biacore SPR; kinetics indeterminate (transient). As for the experimental part:
as §1

Experiment [9] has as its target T1, activin A. Briefly: Biacore SPR. The procedure:
as §1
This is another data set of the same source.

The target in experiment [10] is T9, activin AB (UniProt P08476 311-426; P09529 293-407).
T9 sequence (looked up) 1: T1 sequence (looked up)
T9 sequence (looked up) 2: T7 sequence (looked up)
In words: Biacore SPR. As for the experimental part:
as §1

The target in experiment [11] is T4, BMP10. In words: Biacore SPR. As for the experimental part:
as §1
This is another data set of the same source.

Experiment [12] concerns the target T10, BMP15 (UniProt O95972 268-392).
T10 construct: also called GDF9b
T10 sequence (looked up): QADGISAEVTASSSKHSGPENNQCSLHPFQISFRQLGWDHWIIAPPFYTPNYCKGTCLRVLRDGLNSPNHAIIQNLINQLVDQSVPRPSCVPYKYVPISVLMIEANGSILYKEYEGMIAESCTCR
Briefly: Biacore SPR. As for the experimental part: as §1

For experiment [13], the target named is T7, activin B. Briefly: Biacore SPR. As for the experimental part: as §1
This is another data set of the same source.

In experiment [14] the target is T11, BMP5 (UniProt P22003 317-454, limits assumed).
T11 sequence (looked up): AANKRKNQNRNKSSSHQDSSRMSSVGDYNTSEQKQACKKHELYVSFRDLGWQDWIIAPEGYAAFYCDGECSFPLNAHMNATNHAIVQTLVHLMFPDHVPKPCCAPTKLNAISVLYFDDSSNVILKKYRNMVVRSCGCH
In words: Biacore SPR. The procedure: (§2) A Biacore™-based binding assay was used to compare ligand binding selectivity of the BMPRII-Fc:ALK2-Fc heterodimeric complex described above with that of BMPRII-Fc and ALK2-Fc homodimeric complexes. […] Ligands were injected and allowed to flow over the captured receptor protein.

In experiment [15] the target is T4, BMP10. In words: Biacore SPR. As for the experimental part: as §2
The source holds these as a separate data set.

Experiment [16] addresses T8, BMP9. In words: Biacore SPR. As for the experimental part:
as §2

Experiment [17] has as its target T12, BMP7 (UniProt P18075 293-431).
T12 sequence (looked up): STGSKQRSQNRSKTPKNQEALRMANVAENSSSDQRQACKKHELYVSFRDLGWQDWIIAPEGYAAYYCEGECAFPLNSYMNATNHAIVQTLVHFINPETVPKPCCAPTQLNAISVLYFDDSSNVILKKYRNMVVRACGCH
Briefly: Biacore SPR. As for the experimental part: as §2

In experiment [18] the target is T10, BMP15. In words: Biacore SPR. As for the experimental part:
as §2
This is another data set of the same source.

The target of experiment [19] is T7, activin B. In words: Biacore SPR. As for the experimental part:
as §2
This is another data set of the same source.

B1: ActRIIB-Fc:ALK4-Fc heterodimer (Fc fusion)
chain 1: GRGEAETRECIYYNANWELERTNQSGLERCEGEQDKRLHCYASWRNSSGTIELVKKGCWLDDFNCYDRQECVATEENPQVYFCCCEGNFCNERFTHLPEAGGPEVTYEPPPTAPTGGGTHTCPPCPAPELLGGPSVFLFPPKPKDTLMISRTPEVTCVVVDVSHEDPEVKFNWYVDGVEVHNAKTKPREEQYNSTYRVVSVLTVLHQDWLNGKEYKCKVSNKALPAPIEKTISKAKGQPREPQVYTLPPSRKEMTKNQVSLTCLVKGFYPSDIAVEWESNGQPENNYKTTPPVLKSDGSFFLYSKLTVDKSRWQQGNVFSCSVMHEALHNHYTQKSLSLSPGK
chain 2: SGPRGVQALLCACTSCLQANYTCETDGACMVSIFNLDGMEHHVRTCIPKVELVPAGKPFYCLSSEDLRNTHCCYTDYCNRIDLRVPSGHLKEPEHPSMWGPVETGGGTHTCPPCPAPELLGGPSVFLFPPKPKDTLMISRTPEVTCVVVDVSHEDPEVKFNWYVDGVEVHNAKTKPREEQYNSTYRVVSVLTVLHQDWLNGKEYKCKVSNKALPAPIEKTISKAKGQPREPQVYTLPPSREEMTKNQVSLTCLVKGFYPSDIAVEWESNGQPENNYDTTPPVLDSDGSFFLYSDLTVDKSRWQQGNVFSCSVMHEALHNHYTQKSLSLSPG
notes: C-terminal Lys optional; also called ActRIIB-Fc:ALK4-Fc heterodimeric complex; ActRIIB-Fc:ALK4-Fc heteromeric complex
Broadly, the Kd is the concentration at which binding is half-saturated. A higher Kd goes with a looser complex. Usually koff stands for the rate constant with which the complex falls apart. Read a high koff as a short-lived complex. Usually kon stands for a measure of how fast the partners come together. A higher kon goes with fast association. In the case of B1, the Kd in [1] is 0.012 nM; in experiment [2] it was 0.55 nM; in experiment [3], 4.9 nM; in experiment [4], 0.074 nM; in experiment [5], 0.003 nM; in [6], 2.7 nM. The Kd turned out to be 0.006 nM in [7] and 3.4 nM in [8]. Besides, the koff came to 0.00015 s⁻¹ in experiment [1]; 0.00021 s⁻¹ in [2]; 0.017 s⁻¹ in experiment [3]; 0.0041 s⁻¹ in [4]; 0.00011 s⁻¹ in [5]; 0.0055 s⁻¹ in [6]. In [7], the koff turned out to be 4e-05 s⁻¹. The kon amounted to 1.3e+07 M⁻¹ s⁻¹ in experiment [1]; 390000 M⁻¹ s⁻¹ in experiment [2]; 3.4e+06 M⁻¹ s⁻¹ in experiment [3]; 5.6e+07 M⁻¹ s⁻¹ in experiment [4]; 3.8e+07 M⁻¹ s⁻¹ in [5]; 2e+06 M⁻¹ s⁻¹ in experiment [6]. In experiment [7], this molecule registered a kon of 7.1e+06 M⁻¹ s⁻¹.

B2: BMPRII-Fc:ALK4-Fc heterodimer (Fc fusion)
chain 1: SQNQERLCAFKDPYQQDLGIGESRISHENGTILCSKGSTCYGLWEKSKGDINLVKQGCWSHIGDPQECHYEECVVTTTPPSIQNGTYRFCCCSTDLCNVNFTENFPPPDTTPLSPPHSFNRDETGGGTHTCPPCPAPELLGGPSVFLFPPKPKDTLMISRTPEVTCVVVDVSHEDPEVKFNWYVDGVEVHNAKTKPREEQYNSTYRVVSVLTVLHQDWLNGKEYKCKVSNKALPAPIEKTISKAKGQPREPQVYTLPPSRKEMTKNQVSLTCLVKGFYPSDIAVEWESNGQPENNYKTTPPVLKSDGSFFLYSKLTVDKSRWQQGNVFSCSVMHEALHNHYTQKSLSLSPGK
chain 2: B1 chain 2
notes: C-terminal Lys optional; also called BMPRII-Fc:ALK4-Fc heterodimeric complex
In the case of B2, the Kd in [9] is 1.1 nM; in experiment [10], 0.14 nM; in [11] it was 2.2 nM; in experiment [12], 1.7 nM; in experiment [13] it was 1.7 nM; in [8] it was greater than 140 nM. The koff worked out at 0.0022 s⁻¹ in experiment [9]; 0.0005 s⁻¹ in [10]; 0.0018 s⁻¹ in experiment [11]; 0.048 s⁻¹ in experiment [12]; 0.0026 s⁻¹ in experiment [13]. The kon turned out to be 2e+06 M⁻¹ s⁻¹ in experiment [9]; 3.6e+06 M⁻¹ s⁻¹ in experiment [10]; 800000 M⁻¹ s⁻¹ in experiment [11]; 2.8e+07 M⁻¹ s⁻¹ in experiment [12]; 1.6e+06 M⁻¹ s⁻¹ in experiment [13].

B3: BMPRII-Fc:ALK2-Fc heterodimer (Fc fusion)
chain 1: B2 chain 1
chain 2: MEDEKPKVNPKLYMCVCEGLSCGNEDHCEGQQCFSSLSINDGFHVYQKGCFQVYEQGKMTCKTPPSPGQAVECCQGDWCNRNITAQLPTKGKSFPGTQNFHLETGGGTHTCPPCPAPELLGGPSVFLFPPKPKDTLMISRTPEVTCVVVDVSHEDPEVKFNWYVDGVEVHNAKTKPREEQYNSTYRVVSVLTVLHQDWLNGKEYKCKVSNKALPAPIEKTISKAKGQPREPQVYTLPPSREEMTKNQVSLTCLVKGFYPSDIAVEWESNGQPENNYDTTPPVLDSDGSFFLYSDLTVDKSRWQQGNVFSCSVMHEALHNHYTQKSLSLSPG
notes: C-terminal Lys optional; also called BMPRII-Fc:ALK2-Fc heterodimeric complex
Take B3: the Kd was 2.8 nM in [14]; 0.3 nM in experiment [15]; 0.5 nM in experiment [16]; 0.76 nM in experiment [17]; 1.1 nM in experiment [18]; 5.2 nM in experiment [19]. The koff in experiment [14] worked out at 0.005 s⁻¹; in [15], 0.034 s⁻¹; in experiment [16] it was 0.0051 s⁻¹; in [17], 0.012 s⁻¹; in experiment [18], 0.011 s⁻¹; in [19] it was 0.0031 s⁻¹. The kon in experiment [14] came out at 1.8e+06 M⁻¹ s⁻¹; in [15] it was 1.1e+08 M⁻¹ s⁻¹; in experiment [16], 1e+07 M⁻¹ s⁻¹; in experiment [17], 1.5e+07 M⁻¹ s⁻¹; in experiment [18], 9.6e+06 M⁻¹ s⁻¹; in [19], 590000 M⁻¹ s⁻¹.
